Data from US20170241986A1, “METHODS FOR IDENTIFYING COMPOUNDS THAT ALTER THE ACTIVITY OF IRHOM POLYPEPTIDES AND USE THEREOF” (The Jackson Laboratory, priority 2014, published 2017).

Key:
AREG [1] = assay: Co-immunoprecipitation of iRhom2-AREG complex; type: binding, human; conditions: COS7 cell lysates, anti-Flag immunoprecipitation
Method: Immunoprecipitation: 293T and COS7 cell transfections were carried according to the manufacturer's instructions (Life technologies). Cells plated in 6 well plates were treated with 400 μls of Cell Lysis Buffer (Cell Signaling, Danvers, Mass.) containing complete mini protease inhibitors (Roche Applied Science, Indianapolis, Ind.), incubated on ice for 10 min and centrifuged at 14,000 g for 10 min in a cold room. Cell supernatant was incubated overnight with 20 μls of magnetic beads conjugated with Anti-DDK antibody (Origene) in a cold room on a rocking platform. Following overnight incubation, beads/slurry was washed with three times with TBS-T, and protein was collected using 2×SDS-PAGE loading buffer.

iRhom2 [2] = assay: Cyclohexamide chase with flow cytometry of Flag-tagged iRhom2 protein in COS7 cells; type: cell-based; conditions: 150 μg/ml cyclohexamide chase, within one hour
Method: (§1) Flow cytometry—293T and COS7 cells plated in 6 well plates were transiently transfected with 600 ng of HuWt or HuCub or HuWt p.I186T cDNAs using Lipofectamine™ LTX reagent. After 40 h, cells were incubated in 150 μg/ml of cyclohexamide for 0, 0.5, 1, 2 and 4 h. Following that, cells were fixed in 150 μls of freshly prepared cold 4% PFA at RT for 40 min. Cells were washed once with 2 ml PBST and resuspended in 150 μls of PBST for 15 min at RT in the dark. After another wash, cells were resuspended in 125 μls of PBST containing phycoerythrin-labeled anti-DDK primary antibody (1:50) on ice for 30 min. After a final wash, cells were resuspended in FACS buffer and subjected to flow cytometry analysis (BD FACSCalibur).
Statistical analysis—GraphPad Prism v4 (GraphPad Software, San Diego, Calif.) was used to generate Kaplan-Meier survival curves and calculate protein half-life (One phase exponential decay equation). One-way ANOVA and t-tests determined statistical differences. P value less than 0.05 was considered statistically significant.

iRhom2 [3] = assay: Flow cytometry of protein expression of Flag-tagged constructs in 293T and COS7 cells; type: cell-based, human; conditions: 48 h post transfection
Method: as §1, with “After 40 h, cells were incubated in 150 μg/ml of cyclohexamide for 0, 0.5, 1, 2 and 4 h.” left out

AREG [4] = assay: ELISA of AREG in conditioned medium of transfected 293T cells (in vitro cleavage assay); type: cell-based, human; conditions: 293T cells, co-expression with AREG, absence of MM
Description: To test whether Rhbdf2^cub, with its short N-terminal domain, could induce secretion of AREG independently of metalloprotease activity, we performed in vitro cleavage assays in the presence or absence of marimastat (MM), a potent broad-spectrum metalloprotease inhibitor that can block both ADAM17- and ADAM10-dependent shedding of substrates. Because of the significant homology between the mouse and human RHBDF2 genes we transfected 293T cells with human AREG either alone or with the human wildtype (HuWt) or human Cub (HuCub) RHBDF2 genes (FIG. 5A), and measured AREG levels in conditioned medium. In the absence of MM, we observed no difference in AREG levels between AREG-expressing and AREG/HuCub co-expressing cells, whereas co-expression of HuWt and AREG reduced AREG levels by ˜60% (FIG. 5B).
Human AREG, HB-EGF and EGF ELISA: Transient transfections were performed in 293T cells seeded in 24-well plates. Using lipofectamine LTX with Plus reagent 16.5 fmol of HuWt or HuCub was co-transfected with 25 ng of AREG or 50 ng of HB-EGF or 200 ng of EGF. The total amount of transfected DNA was made up to equal amount per well with pCMV6-AC-HA vector. After 24 h, DMSO or 10 μM MM in 1 ml of fresh medium replaced the old medium. After 24 h, 100 μl of supernatant was either undiluted (HB-EGF and EGF) or diluted five-fold (AREG) and subjected to ELISA as per the manufacturer's instructions (DY262, DY259, and DY236).

B1: HuWt: full-length wildtype human RHBDF2 cDNA (iRhom2) in a C-terminal Flag-tagged expression vector (protein)
chain: MASADKNGGSVSSVSSSRLQSRKPPNLSITIPPPEKETQAPGEQDSMLPEGFQNRRLKKSQPRTWAAHTTACPPSFLPKRKNPAYLKSVSLQEPRSRWQESSEKRPGFRRQASLSQSIRKGAAQWFGVSGDWEGQRQQWQRRSLHHCSMRYGRLKASCQRDLELPSQEAPSFQGTESPKPCKMPKIVDPLARGRAFRHPEEMDRPHAPHPPLTPGVLSLTSFTSVRSGYSHLPRRKRMSVAHMSLQAAAALLKGRSVLDATGQRCRVVKRSFAFPSFLEEDVVDGADTFDSSFFSKEEMSSMPDDVFESPPLSASYFRGIPHSASPVSPDGVQIPLKEYGRAPVPGPRRGKRIASKVKHFAFDRKKRHYGLGVVGNWLNRSYRRSISSTVQRQLESFDSHRPYFTYWLTFVHVIITLLVICTYGIAPVGFAQHVTTQLVLRNKGVYESVKYIQQENFWVGPSSIDLIHLGAKFSPCIRKDGQIEQLVLRERDLERDSGCCVQNDHSGCIQTQRKDCSETLATFVKWQDDTGPPMDKSDLGQKRTSGAVCHQDPRTCEEPASSGAHIWPDDITKWPICTEQARSNHTGFLHMDCEIKGRPCCIGTKGSCEITTREYCEFMHGYFHEEATLCSQVHCLDKVCGLLPFLNPEVPDQFYRLWLSLFLHAGVVHCLVSVVFQMTILRDLEKLAGWHRIAIIFILSGITGNLASAIFLPYRAEVGPAGSQFGLLACLFVELFQSWPLLERPWKAFLNLSAIVLFLFICGLLPWIDNIAHIFGFLSGLLLAFAFLPYITFGTSDKYRKRALILVSLLAFAGLFAALVLWLYIYPINWPWIEHLTCFPFTSRFCEKYELDQVLH
modifications: left off: small tags and cut ends
notes: full-length wildtype human RHBDF2 cDNA (iRhom2) in a C-terminal Flag-tagged expression vector
physical complex with AREG (AREG [1]): forms physical complexes with AREG
reduction in immunoreactivity compared with HuCub or p.I186T (iRhom2 [2]): approximately 50%
protein expression level compared to HuCub and p.I186T (iRhom2 [3]): significantly lower
reduction of AREG levels in conditioned medium (AREG [4]): ~60%
